The test system of one experiment is Hep3B cells. The experiment is described as follows: Cell proliferation assay (EdU incorporation). The class given is cell-based, human. The settings on record: relative to OSI-06. The method, then: EdU incorporation was used to measure cell proliferation (Invitrogen, C10338). Briefly, cells were plated at a density of 2×10^5 cells/well in 6-well plates and cultured in serum free media. After 24 hr of serum starvation, PBS (black) and 1.5 μM Fc-domain 11^I1572 (grey) as negative controls, 0.5 and 1.5 μM Fc-domain 11^AB5 (orange), 1 μM OSI-906 (purple) and 0.1 and 0.5 μM doxycycline (green) as positive controls were added to the different wells and cells were further cultured. After 48 hr, 10 μM EdU was added for 3 hr and cells were then washed and trypsinised, followed by fixation in 4% PFA and permeabilisation in TBS/5% Triton. The Alexa 555 dye was then attached to the EdU molecules by click chemistry following the manufacturer's instructions and the % of EdU incorporation under different conditions was then analysed by flow cytometry.

The test system of experiment [1] is IGF2^1-67-induced hypoglycaemia. In words: IGF2-induced hypoglycaemia mouse model. The class given is in vivo. An excerpt: All animal experiments were approved by the animal use ethical committee of Oxford University and fully complied with UK Home Office guidelines (PPL 30/2695). Wild-type C57BL/6J and 129S2 mice were used throughout. Mice were anaesthetised using a rising concentration of isoflurane in oxygenated air and maintained using 2% isoflurane with 2 L min^−1 oxygen. Blood glucose measurements were taken using an Advantage diabetic glucose meter (Roche Diagnostics, Burgess Hill, UK). In order to test the direct inhibition of IGF2-induced hypoglycaemia by Fc-domain 11^AB5, blood glucose levels were allowed to normalise for 30 min prior to taking a baseline blood glucose reading, then either 1 mg kg^−1 IGF2 only (R&D systems), […], Fc-domain 11^RHH, or Fc-domain 11^I1572A ([…]) was injected. Blood glucose measurements were taken every 10 min for the following hour. For the Fc-domain 11^AB5 mouse preloading experiment, 11.7 mg kg^−1 Fc-domain 11^AB5 or PBS, as negative control, was injected immediately after induction of anaesthesia, 30 mins later a baseline blood glucose reading was taken and 1 mg kg^−1 IGF2 ([…]) was injected, readings were then taken every 10 min for the following hour. For the mouse IGF2 preloading experiment, 1 mg kg^−1 IGF2 was injected immediately after induction of anaesthesia, 30 min later a baseline blood glucose reading was taken and either 11.7 mg kg^−1 Fc-domain 11^AB5 ([…]) or PBS was injected, readings were then taken every 10 min for the following hour.

The next experiment has as its target T1, IGF2^1-67 (Homo sapiens, UniProt P01344).
T1 construct: Recombinant mature (IGF2^1-67 [7.5 kDa]
The experiment is described as follows: SPR of IGF forms on Fc-domain 11 proteins immobilised by antibody capture. It counts as binding. Conditions: HBS-EP pH 7.4. The method, then:
(§1) SPR analysis of the interaction of recombinant IGF1 and IGF2 forms with Fc-domain 11 proteins immobilised by antibody capture (CM5 chip containing monoclonal mouse anti-human IgG antibody immobilised by amine coupling). Measurements were carried out at 25° C. in HBS-EP buffer (pH 7.4).
(§2) Final kinetic analysis of mutants by SPR was conducted using a Biacore T200 biosensor at 25° C. in either HBS-EP (10 mM HEPES pH 7.4, 150 mM NaCl, 3 mM EDTA, and 0.005% (v/v) surfactant P20) or MES-EP (20 mM MES pH 6.5, 150 mM NaCl, 3 mM EDTA, and 0.005% (v/v) surfactant P20) at a flow-rate of 40 μL min^−1. […] For the analysis of the Fc-domain 11^AB5 interaction, approximately 50 RU of a biotinylated IGF2:biotinylated ubiquitin mixture (1:8 proportion) was immobilized on the CM5-streptavidin chip. This interaction was also analysed by immobilizing the Fc-domain 11^AB5 and Fc-domain 11^AB5-RHH (or Fc-domain 11^I1572A as control) by Human Antibody Capture (monoclonal mouse anti-human IgG antibody immobilised on a CM5 chip by amine coupling, GE Healthcare) with and without human IgG1 Fc fragment (Bethyl Laboratories, UK) in the control flow cell. Increasing concentrations of IGF2^1-67, proIGF2^1-104, proIGF2^1-156 and IGF1 ranging from 0.125 to 32 nM were injected. T200 BiaEvaluation software (GE Healthcare) was used to fit the resulting curves according to a 1:1 binding model. Steady state affinities were determined using the kinetic data, taking the response average at 5 seconds before injection end and for 5 seconds average. Thermodynamic data was performed across the temperature range of 10° C. to 30° C., van't Hoff and Erying plots generated and ΔH, −TΔS and ΔG values determined as previously described.

The target in another experiment is T2, IGF2^1-156 (Homo sapiens, UniProt P01344).
T2 construct: pro-IGF2^1-156 [17 kDa]
The experiment is described as above. The class given is binding. Conditions: for Kinetics koff: HBS-EP pH 7.4; for Kinetics kon: may be inaccurate (mixture of three isoforms). On the procedure: as §1, §2

For a further experiment, the target named is T3, IGF2^1-104 (Homo sapiens, UniProt P01344).
T3 construct: pro-IGF2 (pro-IGF2^1-104 [11 kDa]
The experiment is described as above. The settings on record: HBS-EP pH 7.4. It counts as binding. On the procedure:
as §1, §2

The test system of the next experiment is Huh7 cells. In words: Apoptosis in hepatocellular carcinoma cells. The class given is cell-based, human.
The subject of another experiment is Hep 3B2.1-7 cells. The experiment is described as follows: In vitro cell viability (CellTiter 96 AQueous). The class given is cell-based, human. The settings on record: cell line not specified in the sentence (FIG. 10: Hep3B, Huh7). The method, then:
The human hepatocellular carcinoma cell lines Hep 3B2.1-7 and Huh-7D12 were obtained from the ATCC (HB-8065) and the ECACC (Catalogue number 1042712), respectively. Hep 3B2.1-7 was grown in EMEM (Lonza) supplemented with 10% (v/v) fetal bovine serum, 100 U mL-1 penicillin, 100 μg mL-1 streptomycin, and 2 mM Lglutamine Huh-7D12 was grown in DMEM (Sigma) supplemented with 10% fetal bovine serum, 100 U mL-1 penicillin, 100 μg mL-1 streptomycin, and 2 mM L-glutamine. Cells were plated in 96-well plates at a density of 1-2×10^4 cells/well in serum free medium. After 24 hr, Fc-domain 11^AB5 (orange), Fc-domain 11^I1572A as negative control (grey) or OSI-906 (purple) were added to each well to different final concentrations and the cells were incubated for further 48-72 hr. Cell viability was assayed at 48 and 72 hr after Fc-domain 11^AB5 treatment using the CellTiter 96® AQueous Non-Radioactive Cell Proliferation Assay (Promega). The half maximal inhibitory concentration (IC50) was calculated using graph prism.

Where [2] appears, read: pre-loading, co-injection or post-loading.

Residue numbers refer to the chain shown, from its start. Names and notes keep the numbering of the source. “Also recorded” adds a separate entry of the source. Marks after values point to notes of the source that are not given here.

T2 sequence (P01344 25-180): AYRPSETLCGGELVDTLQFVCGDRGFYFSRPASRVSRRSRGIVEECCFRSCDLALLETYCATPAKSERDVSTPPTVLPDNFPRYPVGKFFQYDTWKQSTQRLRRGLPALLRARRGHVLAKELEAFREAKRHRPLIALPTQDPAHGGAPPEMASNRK
T3 sequence (P01344 25-128): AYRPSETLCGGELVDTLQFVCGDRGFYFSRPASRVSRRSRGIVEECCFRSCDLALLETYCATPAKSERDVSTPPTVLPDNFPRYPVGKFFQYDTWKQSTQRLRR
T1 sequence (P01344 25-91): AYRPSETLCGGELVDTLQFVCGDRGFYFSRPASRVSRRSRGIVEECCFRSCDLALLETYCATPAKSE

B1: Fc-domain 11^AB5: human IgG1 Fc-fusion of domain 11^AB5 (protein)
chain: NEHDDCQVTNPSTGHLFDLSSLSGRAGFTAAYAKGWGVYMSICGENENCPPGVGACFGQTRISVGKANKRLRYVDQVLQLVYKDGSPCPSKSGLSYKSVISFVCRPEAGPTNRPMLISLDKQTCTLFFSWHTPLACEQAT
modifications: left off: a dimerising Fc or GST
notes: human IgG1 Fc-fusion of domain 11^AB5
With B1, the Proliferation entry in the experiment on Hep3B cells was “inhibited”. For the same molecule, the “IGF2-induced hypoglycaemia (blood glucose)” value is “can reverse IGF2-induced hypoglycaemia” in experiment [1] (administered 30 min after 1 mg kg^−1 IGF2^1-67); “significant abrogation of the hypoglycaemic effects” in experiment [1] (setting [2]); “protects against IGF2-induced hypoglycaemia” in experiment [1] (preloading 30 min before 1 mg kg^−1 IGF2^1-67); “abrogation; also recorded: prevents IGF2-induced hypoglycaemia” in experiment [1] (premixed / co-injected with 1 mg kg^−1 IGF2^1-67, molar ratio 1:1). For the same molecule, the Kinetics koff is 0.025 s⁻¹ in the experiment with IGF2^1-67, 0.0009 s⁻¹ with IGF2^1-156 and 0.0069 s⁻¹ with IGF2^1-104. For the same molecule, the Kinetics kon with IGF2^1-67 was 6.47e+06 M⁻¹ s⁻¹; with IGF2^1-156, 4.19* ×10^6 M^−1s^−1; with IGF2^1-104, 1.287e+07 M⁻¹ s⁻¹. Besides, in the experiment with Huh7 cells, the Apoptosis result is on record as “promoted”.

B2: Fc-domain 11^I1572A: low binder Fc-domain 11 fusion with I1572A, non-IGF2 binding control (protein)
chain: B1 chain with A33S, K34E, G35K, W36G, G37L, I62A
modifications: left off: a dimerising Fc or GST
B2: in experiment [1] (setting [2]), the “IGF2-induced hypoglycaemia (blood glucose)” value was “not detected”. Further, in the experiment with IGF2^1-156, the Kinetics koff was determined as 0.0008 s⁻¹ and the Kinetics kon is listed as 0.29* ×10^6 M^−1s^−1. In the experiment with IGF2^1-104, this molecule returned a Kinetics koff of 0.002 s⁻¹ and a Kinetics kon of 520000 M⁻¹ s⁻¹. Moreover, the “Inhibitory effect on cell lines” value in the experiment with Hep 3B2.1-7 cells was “no effect”.

These data come from patent US10494415B2, “Insulin-like growth factor 2 (IGF2) binding agents” (Cancer Research Technology Limited, priority 2015, dated 2019).
